# Assay results as given in the DeepSol protein solubility set.
# Assay: soluble on expression in E. coli; label from the status in PepcDB or PDB records
row,Sequence,soluble on expression in E. coli
1,SELPPEPQANGEAVGAGGGPIYYIYEEEEEEEEEEEEPPPEPPKLVNDKPHKFKDHFFKKPKFCDVCARMIVLNNKFGLRCKNCKTNIHEHCQSYVEMQRCFGKIPPGFHRAYSSPLYSNQQYACVKDLSAANRNDPVFETLRTGVIMANKERKKGQADKKNPVAAMMEEEPESARPEEGKPQDGNPEGDKKAEKKTPDDKHKQPGFQQSHYFVALYRFKALEKDDLDFPPGEKITVIDDSNEEWWRGKIGEKVGFFPPNFIIRVRAGERVHRVTRSFVGNREIGQITLKKDQIVVQKGDEAGGYVKVYTGRKVGLFPTDFLEEI,soluble
2,SENDSIELDDVANLMFYGEGQIGTNKQPFMFIFDTGSANLWVPSVNCDSIGCSTKHLYDASASKSYEKDGTKVEISYGSGTVRGYFSKDVISLGDLSLPYKFIEVTDADDLEPIYSGSEFDGILGLGWKDLSIGSIDPVVVELKKQNKIDNALFTFYLPVHDKHVGYLTIGGIESDFYEGPLTYEKLNHDLYWQIDLDIHFGKYVMQKANAVVDSGTSTITAPTSFLNKFFRDMNVIKVPFLPLYVTTCDNDDLPTLEFHSRNNKYTLEPEFYMDPLSDIDPALCMLYILPVDIDDNTFILGDPFMRKYFTVFDYEKESVGFAVAKNL,soluble
3,SENDVIELDDVANLMFYGEGEVGDNHQKFMLIFDTGSANLWVPSKKCNSIGCSTKHLYDSSKSKSYEKDGTKVEITYGSGTVRGFFSKDLVTLGYLSLPYKFIEVTDTDDLEPLYTAAEFDGILGLGWKDLSIGSIDPIVVELKNQNKIDQALFTFYLPVHDKHSGYLTIGGIEEKFYEGELTYEKLNHDLFWQVDLDVNFGKTSMEKANVIVDSGTSTITAPTSFINKFFKDLNVIKVPFLPFYITTCNNKDMPTLEFKSANNTYTLEPEYYMEPLLDIDDTLCMLYILPVDIDKNTFILGDPFMRKYFTVFDYDKESIGFAVAKN,soluble
4,SENLYFQGSASATCERCKGGFAPAEKIVNSNGELYHEQCFVCAQCFQQFPEGLFYEFEGRKYCEHDFQMLFA,soluble
5,SEQDKWKTSAQLWQNLDEETIRALWNVQGQLNKLEEERDKAIEEIERQFLESSRPLYEERQRICSLVDRFWFHVLCSHPYTGTKMTNKDRTVLQHLEDVFFTEIENCMQGYQINLKFSPNDYIEDEIIWKQVKYVDDLQGWKGAASGIRWKRQDSIIDPDNEFFSDGEEVLQLTEKGNTVAKLQRKARSLLSWFETEDVTDNLKDVFYEDIWQHCIDWFFARDNASIEEFPVTMEGEQEDIVMID,soluble
6,SESPWIAEDTSQIQTKLLEFAKSPEVFDWMVKIRRKIHENPELGYEELETSKLIRSELELIGIKYRYPVAITGVIGYIGTGEPPFVALRADMDALPIQEGVEWEHKSKIAGKMHACGHDGHVTMLLGAAKILHEHRHHLQGTVVLIFQPAEEGLSGAKKMREEGALKNVEAIFGIHLSARIPFGKAASRAGSFLAGAGVFEAVITGKGGHAAIPQHTIDPVVAASSIVLSLQQLVSRETDPLDSKVVTVSKVNGGNAFNVIPDSITIGGTLRAFTGFTQLQQRVKEVITKQAAVHRCNASVNLTPNGREPMPPTVNNKDLYKQFKKVVRDLLGQEAFVEAAPVMGSEDFSYFAETIPGHFSLLGMQDETNGYASSHSPLYRINEDVLPYGAAIHASMAVQYLKEKASKGSVSGFHEEL,soluble
7,SETQKTQAENPPKPATSSCRKKTKDDANFLEDVKDHIDDFINASMDDHKNCFNKTIKKMFGLSKAVADKQQSEAKGGVESYLPLQTTVSD,soluble
8,SFHYQALPMRVSFEVGAVTKIGEELDRLGLSRALVLCTPEQKHLADLVMDHLGDRGAGIFDQARMHVPVETADRARDRARKLGADSCVVIGGGSSIGLGKAIALEHGLPIIAIPTTYAGSEMTPIWGLTRDGRKQTGRDAKVLPQSVIYDPQLTAT,not soluble
9,SFLSNVKYNFMRIIKYEFILNDALNQSIIRANAQYLTAAALHNLDEAVKFDMGAYKSSKDDAKITVILRISKTQLYVTAQDEDQPVLLKEMPEIPKTITGSETNLLFFWETHGTKNYFTSVAHPNLFIATKQDYWVCLAGGPPSITDFQILENQA,soluble
10,SGAMYIDCDGIKLNAYLDMPKNNPEKCPLCIIIHGFTGHSEERHIVAVQETLNEIGVATLRADMYGHGKSDGKFEDHTLFKWLTNILAVVDYAKKLDFVTDIYMAGHSQGGLSVMLAAAMERDIIKALIPLSPAAMIPEIARTGELLGLKFDPENIPDELDAWDGRKLKGNYVRVAQTIRVEDFVDKYTKPVLIVHGDQDEAVPYEASVAFSKQYKNCKLVTIPGDTHCYDHHLELVTEAVKEFMLEQIAK,soluble
11,SGCFGCFSPEVDDDLKPSKPNYHSSDESSGADARRKVAPLATDGGNGYAHSFTFKDLSVATGYFNEANFIGEGGFGKVYKGKINGQMVAVKQLTRDGVQGRNEFLVEVLMLTVLNHPHLVSLVGFCAQGDERLLVYEYMPFGSLESHLFDVPLGKQPLDWNTRMRIAVGVAEGLSYLHNVADPPIIYRDMKAANILLDEDYRPKLSDFGLAKVGPVGDRTHVSTRVMGTYGYCAPDYVVSGKLTMKSDIYSFGVLLLELITGRRIYDASRPKPEQSLLTWSRPFLHDKRKFYRLADPALHGCYPTSALNQLVVISIMCLQDQPHVRPIISDVVIGLNHVASQPYVPERSSVSLSSPARCGSPQYAGTPSRRRGGRRVAQYA,soluble
12,SGDFTWSSNLVFSWNKNEIKDLYGDGQNDLGNRWFLGHPIGVIYDYTMVGIWQEDEIARGDHLNWDPIAEAGDVKLADISGPDGVPDGKIDDNDRTIKGQTTPKWIGGLTNTFTYKDFTLSIFIQTTQGLKKNNSLIGMAGDEMGRRNTTTEIGYWTPENKSNEWRSLRKNSNKHGYGFPCDASYTRIKDITLSYTFPQRMIQKMGIGGLQLYVSGRNLFTFTDWVGWDPEARQVARGNSSWDSTRGETVYDSSNYPMTKSCVFGVNLTF,not soluble
13,SGDKPPGFRGSRDWIGCVEASLCLAHFGGPQGRLCHVPRGVGLHGEVERLYSHFAGGGGPVMVGGDADARSKALLGVCVGSGTEAYVLVLDPHYWGTPKSPSELQAAGWVGWQEVSAAFDPNSFYNLCLTSLSSQQQQRTLD,soluble
14,SGGPGTKSGEPLCPPLLCNQDKETLTLLIQVPRIQPQSLQGDLNPLWYKLRFSAQDLVYSFFLQFAPENKLSTTEPVISISSNNAVIELAKSPESHGHWREWYYGVNNDSLELQECSNSDQLQGKEERVNEESHLTEKEYIEHCNTPTTDSDSSIAVKALQIDSFGLVTCFQQESLDVSQMILGKSQQPESKMQSEFIKEKSATCSNEEKDNLNESVITEEKETDGDHLSSLLNKTTVHNIPGFDSIKETNMQDGSVQVIKDHVTNCAFSFQNSLLYDLD,soluble
15,SGGTSSSTAHLAVVNIIGTIDSSNQSVNSEDTNKALERAFEAKNSKAVALNINSPGGSPVQSDEIWQEIRYLKKQHPDKKVYAVIGDMGASGAYYIASAADEIIVNPSSLVGSIGVIMPNYGITGLAQKLGIEDRTLTSGSNKDILSMTKPVNPAQREHIQSVLDNVHAHFINAVKEGRGTRLKSNDPAIFSGLFWTGEQAIQLGVAD,not soluble
16,SGIAVSDDCVQKFNELKLGHQHRYVTFKMNASNTEVVVEHVGGPNATYEDFKSQLPERDCRYAIFDYEFQVDGGQRNKITFILWAPDSAPIKSKMMYTSTKDSIKKKLVGIQVEVQATDAAEISEDAVSERAKKDVK,soluble
17,SGSHTALIEVKGMIADDEPASADNIVTALRAAFKDEGTKGIVLRINSPGGSPVQSGYIYDEIRRLRGEHPNVKVYAVISDLGASGAYYIASAADQIYADKASLVGSIGVTAASFGFVGTMEKLGVERRVYTSGEHKSFLDPFQPQKPEETQFWQQVLDTTHKQFIDSVKKGRGDRLKVEGHPELFSGLVWSGEQALQLGLIDGLGNASYVAREVVKEKKIEDYTVQESPFDRFAKKFGASVAERLALWMGWQGPVLR,not soluble
18,SHEELNDQLRVRREKLKKIEELGVDPFGKRFERTHKAEELFELYGDLSKEELEEQQIEVAVAGRIMTKRGMGKAGFAHIQDVTGQIQIYVRQDDVGEQQYELFKISDLGDIVGVRGTMFKTKVGELSIKVSSYEFLTKALRPLPEKYHGLKDIEQRYRQRYLDLIMNPESKKTFITRSLIIQSMRRYLDSHGYLEVETPMMHAVAGGAAARPFITHHNALDMTLYMRIAIELHLKRLIVGGLEKVYEIGRVFRNEGISTRHNPEFTMLELYEAYADFRDIMKLTENLIAHIATEVLGTTKIQYGEHLVDLTPEWRRLHMVDAIKEYVGVDFWRQMSDEEARELAKEHGVEVAPHMTFGHIVNEFFEQKVEDKLIQPTFIYGHPVEISPLAKKNPDDPRFTDRFELFIVGREHANAFTELNDPIDQRQRFEEQLKEREQGNDEAHEMDEDFLEALEYGMPPTGGLGIGVDRLVMLLTNSPSIRDVLLFPQMRHK,soluble
19,SHKLPSGPPMHHFNSRYSETGCVGMQIRDAHEENPESILDEHVQRVMKTPGCQSPGTGRHSPKSRSPDGH,soluble
20,SHMAPEDPNEEAVSQIFPDSVMLAVQEGIDLLTFPPAPGSPE,soluble
21,SILEGGGVMNLNPGNNLLHQPPAWTDSYSTCNVSSGFFGGQWHEIHPQYWTKYQVWEWLQHLLDTNQLDANCIPFQEFDINGEHLCSMSLQEFTRAAGTAGQLLYSNLQHLKWNGQCSSDLFQSTHNVIVKTEQTEPSIMNTWKDENYLYDTNYGSTVDLLDSKTFCRAQISMTTTSHLPVAESPDMKKEQDPPAKCHTKKHNPRGTHLWEFIRDILLNPDKNPGLIKWEDRSEGVFRFLKSEAVAQLWGKKKNNSSMTYEKLSRAMRYYYKREILERVDGRRLVYKFGKNARGWRENEN,soluble
22,SIVLEPIYWNSSNSKFLPGQGLVLYPQIGDKLDIICPKVDSKTVGQYEYYKVYMVDKDQADRCTIKKENTPLLNCAKPDQDIKFTIKFQEFSPNLWGLEFQKNKDYYIISTSNGSLEGLDNQEGGVCQTRAMKILMKVGQDAS,soluble
23,SKIFDFVKPGVITGDDVQKVFQVAKENNFALPAVNCVGTDSINAVLETAAKVKAPVIVQFSNGGASFIAGKGVKSDVPQGAAILGAISGAHHVHQMAEHYGVPVILHTDHCAKKLLPWIDGLLDAGEKHFAATGKPLFSSHMIDLSEESLQENIEICSKYLERMSKIGMTLEIELGCTGGEEDGVDNSHMDASALYTQPEDVDYAYTELSKISPRFTIAASFGNVHGVYKAGNVVLTPTILRDSQEYVSKKHNLPHNSLNFVFHGGSGSTAQEIKDSVSYGVVKMNIDTDTQWATWEGVLNYYKANEAYLQGQLGNPKGEDQPNKKYYDPRVWLRAGQTSMIARLEKAFQELNAIDVL,soluble
24,SKIKDAKKPSFPWFGMDIGGTLVKLSYFEPIDITAEEEQEEVESLKSIRKYLTSNVAYGSTGIRDVHLELKDLTLFGRRGNLHFIRFPTQDLPTFIQMGRDKNFSTLQTVLCATGGGAYKFEKDFRTIGNLHLHKLDELDCLVKGLLYIDSVSFNGQAECYYFANASEPERCQKMPFNLDDPYPLLVVNIGSGVSILAVHSKDNYKRVTGTSLGGGTFLGLCSLLTGCESFEEALEMASKGDSTQADKLVRDIYGGDYERFGLPGWAVASSFGNMIYKEKRESVSKEDLARATLVTITNNIGSVARMCAVNEKINRVVFVGNFLRVNTLSMKLLAYALDYWSKGQLKALFLEHEGYFGAVGALLGLPNFS,soluble
